These results are taken from the DeepSol protein solubility set.

A short description of this data set: soluble on expression in E. coli; label from the status in PepcDB or PDB records.
For the sequence “MTPSRPSPDFPDGGFVQVRGARQHNLKDISVKVPRDALVVFTGVSGSGKSSLAFGTLYAEAQRRYLESVSPYARRLFNQAGVPDVDAIDGLPPAVALQQARGTPTARSSVGSVTTLSNLLRMLYSRAGDYPPGQGIVYAEGFSPNTPEGACPECHGLGRVYTVTEDSMVPDPSLTIRERAVAAWPQAWGGQNQRDILVTLGIDVDVPWRELPEETRHWILFTDEQPVVPVYPGLTPAETQRALKKKMEPSYMGTFSSARRHVLHTFANTESASMKKRVQGYMISEECPLCHGKRLRQEALNVTFAGLDITELSRLPLARVSELLRPYAEEREPGHAERVKNRPEQAIALQRMAADLVKRLDVLLHLGLGYLGLDRSTPTLSPGELQRLRLATQLYSNLFGVVYVLDEPSAGLHPADTEALLSALENLKRGGNSLFVVEHDLDVIRRADWLVDVGPEAGEKGGEILYSGPPEGLKHVPESQTGQYLFADRHTEPHTPREPAGWLELNGVTRNNLDNLDVRFPLGVMTSVTGVSGSGKSTLVSQALVDALAAHFGQPVNPDPEDDEDPADHTAGSARLGGDLAQITRLVRVDQKPIGRTPRSNMATYTGLFDQVRKLFAATPLAKKRGYNAGRFSFNVKGGRCEHCQGEGWVMVELLFLPSVYAPCPVCHGTRYNAETLEVEYRGKNIADVLALTVDEAHDFFADESAIFRALDTLREVGLGYLRLGQPATELSGGEAQRIKLATELRRSGRGGTVYVLDEPTTGLHPADVERLQRQLVKLVDAGNTVIAVEHKMQVVAASDWVLDIGPGAGEDGGRLVAQGTPAEVAQAAGSVTAPYLRAALR”, the “soluble on expression in E. coli” value is “soluble”.
Under “MTQDTQLTFEARDEFNRKSIAEKVITLLRSDITVSPLVIDGSWGLGKTEFCQKLLSLMSTEETHHLIYIDAFKADHADEPLLTVLAKVLEVLPSQEEQQGLIQKAIPALRYGLKTGGKALVAHILRQDTDSIINGFDEEVKQVADKAIDASVESLLKDHVEAESSLQALQQALKSIAEQKPIVLFIDELDRCRPNFSVLMLETIKHTFDVEGVQFVLITNTNQLKASINHCYGPTIDAQRYLDKFIRFSFTLPHTTNENRHDVTMASVTHYKNLVAKSERLQGLSLDRDSDFWLVAQVINTNNISLREVETLVRHIEIYQALFDDQPLSNHTQWAYRLMALLGVLLISFKPNLAKSALINNLDAKDLGNFLGVHSLPKLENNQHPTHCDTLVFMLASECKYNSDFYVPDNPQDKERWEGEANEYFRGRYNLTRNGRMSLVTGAIKGLGLSVNLEHHHHHH” stands “not soluble”; under “MTQFAFVFPGQGSQSVGMLAEMAANYPIVEETFAEASAALGYDLWALTQQGPAEELNKTWQTQPALLTASVALWRVWQQQGGKMPALMAGHSLGEYSALVCAGVINFADAVRLVEMRGKFMQEAVPEGTGGMSAIIGLDDASIAKACEESAEGQVVSPVNFNSPGQVVIAGHKEAVERAGAACKAAGAKRALPLPVSVPSHCALMKPAADKLAVELAKITFSAPTVPVVNNVDVKCETDAAAIRDALVRQLYNPVQWTKSVEFIAAQGVEHLYEVGPGKVLTGLTKRIVDTLTASALNEPAALSAALTQ”, “not soluble”.
With “MTQHNDNDDDAALFRAAIGPVRPLRPSEMAITIKPPSRPRRRIIQHHQDEAKSKFAQLLRESAPLEAGDTISYRSKALPSRLFQRLKRGQFSVQDELDLHGATVVQAETLLRQFLLEAHMYEYGCVRIIHGKGLQSNGGTPVLKNLVNQLLRLRKDVLAFHSSPPAQGGTGAVLVLLTHH”, the “soluble on expression in E. coli” value is listed as “soluble”.
Under “MTQNTKLRPITPEFDPWEAYMDVDQYGDMQLTNVEFTTTTLCNMRCEHCAVGYTLQPKDPNALPIDLLLKRLEEIPRLRSISITGGEPMLSLKSVKEYVVPLLKYAHERGVRTQINSNLTLDIERYEWIIPYLDVLHISHNWGTVEDFAEIGFA” stands “not soluble”; under “MTQQEYQNRRQALLAKMAPGSAAIIFAAPEATRSADSEYPYRQNSDFSYLTGFNEPEAVLILVKSDETHNHSVLFNRIRDLTAEIWFGRRLGQEAAPTKLAVDRALPFDEINEQLYLLLNRLDVIYHAQGQYAYADNIVFAALEKLRHGFRKNLRAPATLTDWRPWLHEMRLFKSAEEIAVLRRAGEISALAHTRAMEKCRPGMFEYQLEGEILHEFTRHGARYPAYNTIVGGGENGCILHYTENECELRDGDLVLIDAGCEYRGYAGDITRTFPVNGKFTPAQRAVYDIVLAAINKSLTLFRPGTSIREVTEEVVRIMVVGLVELGILKGDIEQLIAEQAHRPFFMHGLSHWLGMDVHDVGDYGSSDRGRILEPGMVLTVEPGLYIAPDADVPPQYRGIGIRIEDDIVITATGNENLTASVVKDPDDIEALMALNH”, “not soluble”.
Next, “MTRACNLYVFKNKYVSFNLLDSPNSNPKLLKISLPFNFMDEFEGLLKAVGSAPWYKLIGMVPKLQGDRVVVEMEIDRSKHLQALGTTHGGAIASVLDSAIGLNVNREVVKMGKTAVTAQLNIHYIRPVTEGKIVGVGMPMHIGSKVTVGYGEVRNEEGELVAAGTATFYIIDRRFRD”: “soluble”; “MTRFLEKRHKKKKATNKERILSYKPIHAIEQENSFRSSRCSNQTVEVSAVEDSRSALVGFFESNEPSESVTLKGKRERQVRFADKTNTVGLLKESLEEKLLASKTLISQLKEENCRLKERLNEVKDQLELKEKIALVQQENNDLEAEVLEWKAKFYESESEKERILASRSRPKDGYEIVQESLAQQPGTTSFYDYKFRQLVHKLTRMNAIHSKHNDKEYHKCDIVNESKDRSITFELFIDEEQEEIEYVPVQLNGVSQKLPSYLQDNISFDVQNAPIFFTKIMHSLFSK”: “soluble”; “MTRHLAGSFASPPGAEAEGGPVRVTALRAQAFHIPTDLPEADGTFAWNATTLVLVEVEAGGQTGIGYTYSDASIVRLIHHTLAACVIDADAWQVGALWLRMQRQVRNPGRAGLAATAISAVDCALWDLKAKLLGVPLVTLLGAQRANVPIYGSGGFTTYTDEQLREQLVRWVAQDGCRWVKMKIGTHPQEDPQRVAAARAAIGDAGLFVDANGAFSVKEALHYARAFAEQGVEWFEEPVSSDDLRGLALLRERAPARMEIAAGEYAYTLDDFRLLLEAHAVDVLQADVSRCGGVTGFLQAAALCEAFHVPLSAHCAPALHLHVASAVRNLRHQEWFHDHVRIEAMLFDGAPRPSNGAIAPDMARPGCGLAFRHGDAQRYLIH”: “soluble”.
Under “MTRKIDYLNYEEIQSLKNSLLHNIKHTYISRYMILTALYTGMRPGEIAVLTWSDIDFKNQTININKSYNHDKGRVDNYDSSEIDKSTKNTNSVRIIKVDKKFLDILSQLKQNDHEKIFIGKDGTIPTSNAVNKVWRKQLEKLNIDKPSFHFHSVRHTHVALLPFKGVPLYAISKRLGHANMSTTAKKYAYMLDELKQQVRLEHHHHHH” stands “not soluble”; under “MTRLAVEAAEQARLAAEVEAQRIAAETAEHARVVAEAEAKRVADEQALFAAEAEAHRITAEAAEQARMEAEAQAQRDADEHARVTAEAQALEAGKTLRLPEAGTPQLGAVAGVISVTAGSGLFLDATIQAAIEILAALVGTAVSSTTAVGIGTLLYSPSLGNGELPGRMLDLPARVLMPDLPDALNDVAATGGTVDMPYRIYGDQSKYSVVATQPEGGFSPKVPVRALILDPVANAYTFTTSDTPPITLTFPIAAPENSSTTTVAQPIETPAYTGITLEPIEVKAEPLPATSPLDIRDAIYVYPVNSGLPPVYVVFSSPYEGATTKGEHSGRMYDPDNAGGPTQNLDWTTASVTQNGIDLVKLHTGRFEPSDANAVMIDRLEKILRSELSMTDTDKRFYTHELRELERYRALGVADGVEGEVWNNAHTATLEDYKLKDSSESFYTPEAITAENKQVYGELEHHHHHH”, “not soluble”; under “MTRPVIVPFFISHQGCPHRCVFCDQERIAGRAGRLPSAAEIHSAVKTFGRGRPVEAAFYGGTFTSLPRNEQERLLAALQPLRHDGSVRSVRLSTRPDALDAETAGFLKSMGVASVELGVQSMDDQVLDVSGRGHSAADTVRAFDVLRSEGIAVGAQLMPGLPGDSRERSLDSLTRILDLKPVSLRIYPTLVVAGTRLAEFWAEGSYTPLTLADAVPLCADMLLACKRAGVPVIRLGLQPTDILERSVLAGPWHPALRQLVEGELWYRLLERLTTGLAAGTVVSVACAPARISDVVGQRRVNLSRLLERRGIVVTGVAGCPTAAPDTLTLTHAGGTVAGSLTD”, “not soluble”.
As for “MTRRGVALVARRLPSSPGRVYAVKIDEGEDVHSVLSSLAEAEDLGFAMVTGIGGMAEATVAFYSPPEATYYTVDVKPPEGRVIEVAAMTGNIVKTSQGYSVHIHVALGVSPGKSISGHLVKGVVKPFMEVFVVELVSGQGTPGTSVFDHREGFKASYKRLEAAALEHHHHHH”, the “soluble on expression in E. coli” value was “not soluble”.
